T1: FOXA1 forkhead domain (UniProt P55317 169-260)
T1 sequence: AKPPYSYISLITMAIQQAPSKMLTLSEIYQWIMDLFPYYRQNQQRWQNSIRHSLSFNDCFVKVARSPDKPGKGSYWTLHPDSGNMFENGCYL

T2: FOXA1 forkhead domain;FOXA2 forkhead domain, Twin-Strep-tagged (human?;human?, UniProt P55317;Q9Y261 169-260;159-252, |)
T2 sequence 1: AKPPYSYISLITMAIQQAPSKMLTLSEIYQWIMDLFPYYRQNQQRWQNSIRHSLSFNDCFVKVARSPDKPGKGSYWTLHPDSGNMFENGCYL
T2 sequence 2: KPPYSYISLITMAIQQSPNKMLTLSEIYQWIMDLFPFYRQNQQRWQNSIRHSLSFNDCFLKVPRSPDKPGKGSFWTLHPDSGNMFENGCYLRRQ

T3: FOXA2 forkhead domain (UniProt Q9Y261 159-252)
T3 sequence: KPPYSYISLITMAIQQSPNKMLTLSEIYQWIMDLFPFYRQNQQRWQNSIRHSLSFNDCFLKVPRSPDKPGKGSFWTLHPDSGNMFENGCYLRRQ

B1: PAL (extended palindromic motif) (dsDNA)
DNA 1: CCGCCGTAAGTAAATATTTACTTAGCCGCC
DNA 2: GGCGGCTAAGTAAATATTTACTTACGGCGG
B2: 2C (two canonical motifs separated by 3 nt) (dsDNA)
DNA 1: CCGCCGTATTTACTGAGTAAATAGCCGCC
DNA 2: GGCGGCTATTTACTCAGTAAATACGGCGG
B3: BLI 40-mer (dsDNA)
DNA 1: GTGTCTCCTGCTCTGTCAGCAGGGCACTGTACTTGCTGAT
DNA 2: ATCAGCAAGTACAGTGCCCTGCTGACAGAGCAGGAGACAC
B4: C (canonical FOXA motif) (dsDNA)
DNA 1: CCGCCGCCGTGTTTACTTTGCCGCCGCC
DNA 2: GGCGGCGGCAAAGTAAACACGGCGGCGG

Columns and labels:
[1] = target: T1, FOXA1 forkhead domain; test: EMSA
[2] = target: T2, FOXA1 forkhead domain;FOXA2 forkhead …; test: EMSA
[3] = target: T3, FOXA2 forkhead domain; test: EMSA
[4] = target: T1, FOXA1 forkhead domain; test: BLI
[5] = target: T3, FOXA2 forkhead domain; test: BLI

Binder | binding result [1] | binding result [2] | binding result [3] | binding result [4] | binding result [5]
B1 | binds | binds | binds |  | 
B2 | binds | binds | binds |  | 
B3 |  |  |  | binds | binds
B4 |  |  | binds |  | 
